Laboratory results published in US20230129812A1, “COMPOSITIONS AND METHODS FOR TREATING PULMONARY HYPERTENSION” (Acceleron Pharma Inc., priority 2020, published 2023).

Columns and labels:
GDF11 = target: T1, GDF11 (Homo sapiens, UniProt O95390); test: A-204 reporter gene assay, pGL3(CAGA)12 luciferase; format: cell-based; conditions: A-204 reporter gene assay
T1 sequence (O95390 299-407): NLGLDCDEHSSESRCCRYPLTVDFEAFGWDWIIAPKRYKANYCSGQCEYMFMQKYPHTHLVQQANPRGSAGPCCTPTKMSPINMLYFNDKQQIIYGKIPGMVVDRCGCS
How it was run: (§1)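 Human rhabdomyosarcoma A-204 cells transfected with SMAD-responsive pGL3(CAGA)12 luciferase reporter (optionally with pRLCMV). Ligand in medium + 0.1% BSA, preincubated ~1 h with Fc-fusion inhibitor before addition to cells; after ~6 h cells lysed and luciferase activity measured.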

activin A [1] = target: T2, activin A (Homo sapiens, UniProt P08476); test: A-204 reporter gene assay, pGL3(CAGA)12 luciferase; format: cell-based; conditions: A-204 reporter gene assay
T2 sequence (P08476 311-426): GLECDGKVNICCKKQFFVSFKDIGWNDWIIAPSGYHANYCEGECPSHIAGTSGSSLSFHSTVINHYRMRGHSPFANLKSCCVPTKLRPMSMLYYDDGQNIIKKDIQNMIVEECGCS
How it was run: as §1

GDF8 = target: T3, GDF8 (Homo sapiens, UniProt O14793); test: A-204 reporter gene assay, pGL3(CAGA)12 luciferase; format: cell-based
T3 sequence (O14793 267-375): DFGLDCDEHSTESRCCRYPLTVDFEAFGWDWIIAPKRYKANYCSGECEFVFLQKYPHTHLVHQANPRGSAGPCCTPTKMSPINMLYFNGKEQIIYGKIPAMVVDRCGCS
Source text: An A-204 reporter gene assay was used to evaluate the effects of ActRIIB-Fc proteins and ActRIIB variant Fc fusion polypeptides on signaling by GDF-11 and activin A. Cell line: human rhabdomyosarcoma (derived from muscle). Reporter vector: pGL3(CAGA)12 (described in Dennler et al, 1998, EMBO 17: 3091-3100). The CAGA12 motif is present in TGF-beta responsive genes (e.g., PAI-1 gene), so this vector is of general use for factors signaling through SMADs.
Day 1: Split A-204 cells into 48-well plate.
Day 2: A-204 cells transfected with 10 ug pGL3(CAGA)12 or pGL3(CAGA)12(10 ug)+pRLCMV (1 pg) and Fugene.
Day 3: Add factors (diluted into medium+0.1% BSA). Inhibitors need to be preincubated with factors for 1 hr before adding to cells. Six hrs later, cells were rinsed with PBS and lysed.
This is followed by a luciferase assay.
As described below, ActRIIB variants were also tested in this assay.
(§2) In addition, an A-204 Reporter Gene Assay was used to evaluate the effects of ALK4-Fc:ActRIIB-Fc heterodimer and ActRIIB-Fc:ActRIIB-Fc homodimer on signaling by activin A, activin B, GDF11, GDF8, BMP10, and BMP9. Cell line: Human Rhabdomyosarcoma (derived from muscle). Reporter vector: pGL3(CAGA)12 (as described in Dennler et al, 1998, EMBO 17: 3091-3100). The CAGA12 motif is present in TGFβ responsive genes (PAI-1 gene), so this vector is of general use for factors signaling through Smads. An exemplary A-204 Reporter Gene Assay is outlined below. • Day 1: Split A-204 cells into 48-well plate. • Day 2: A-204 cells transfected with 10 ug pGL3(CAGA)12 or pGL3(CAGA)12(10 ug)+pRLCMV (1 ug) and Fugene. • Day 3: Add factors (diluted into medium+0.1% BSA). Inhibitors need to be pre-incubated with Factors for about one hr before adding to cells. About six hrs later, cells are rinsed with PBS and then lysed.
(§3) Following the above steps, a Luciferase assay was performed.

BMP10 = target: T4, BMP10 (Homo sapiens, UniProt O95393); test: A-204 Reporter Gene Assay (Example 13); format: cell-based
T4 sequence (O95393 317-424): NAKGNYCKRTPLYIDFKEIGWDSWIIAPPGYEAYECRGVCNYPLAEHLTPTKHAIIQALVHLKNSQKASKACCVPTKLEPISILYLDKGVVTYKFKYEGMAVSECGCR
Source text: as §2, §3

BMP9 = target: T5, BMP9 (Homo sapiens, UniProt Q9UK05); test: A-204 Reporter Gene Assay (Example 13); format: cell-based
T5 sequence (Q9UK05 320-429): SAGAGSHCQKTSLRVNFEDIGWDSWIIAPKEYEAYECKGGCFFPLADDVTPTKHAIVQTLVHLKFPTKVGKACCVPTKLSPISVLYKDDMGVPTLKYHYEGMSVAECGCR
Source text: as §2, §3

activin B = target: T6, activin B (Homo sapiens, UniProt P09529); test: A-204 Reporter Gene Assay (Example 13); format: cell-based
T6 sequence (P09529 293-407): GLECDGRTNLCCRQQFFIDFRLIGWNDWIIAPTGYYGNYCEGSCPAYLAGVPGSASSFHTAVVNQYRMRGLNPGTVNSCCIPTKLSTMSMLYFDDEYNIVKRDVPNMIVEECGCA
Source text: as §2, §3

BMP6 = target: T7, BMP6 (Homo sapiens, UniProt P22004); test: Biacore ligand binding profile, ALK4-Fc:ActRIIB-Fc heterodimer vs homodimers, anti-Fc capture (Example 13, Table 13)
T7 sequence (P22004 375-513): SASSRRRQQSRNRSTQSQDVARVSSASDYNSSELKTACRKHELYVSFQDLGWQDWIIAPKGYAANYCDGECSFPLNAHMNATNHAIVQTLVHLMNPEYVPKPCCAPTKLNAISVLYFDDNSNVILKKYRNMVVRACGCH
Protocol: (§4) A Biacore™-based binding assay was used to compare ligand binding selectivity of the ALK4-Fc:ActRIIB-Fc heterodimeric complex described above with that of ActRIIB-Fc and ALK4-Fc homodimer complexes. The ALK4-Fc:ActRIeB-Fc heterodimer, […], and ALK4-Fc homodimer were independently captured onto the system using an anti-Fc antibody. Ligands were injected and allowed to flow over the captured receptor protein. Results are summarized in Table 13 below, in which ligand off-rates (kd) most indicative of effective polypeptides are denoted in bold.

GDF3 = target: T8, GDF3 (Homo sapiens, UniProt Q9NR23); test: as above
T8 sequence (Q9NR23 251-364): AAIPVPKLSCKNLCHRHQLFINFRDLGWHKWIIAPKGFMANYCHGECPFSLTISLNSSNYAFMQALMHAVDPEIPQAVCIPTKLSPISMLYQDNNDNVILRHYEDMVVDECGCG
Protocol: as §4

activin A [2] = target: T2, activin A; test: as above
Protocol: as §4

B1: ALK4-Fc:ActRIIB-Fc heterodimer: heteromeric complex of extracellular domains of human ActRIIB and human ALK4, each separately fused to an Fc domain with a linker (protein)
chain 1: GRGEAETRECIYYNANWELERTNQSGLERCEGEQDKRLHCYASWRNSSGTIELVKKGCWLDDFNCYDRQECVATEENPQVYFCCCEGNFCNERFTHLPEAGGPEVTYEPPPTAPTGGGTHTCPPCPAPELLGGPSVFLFPPKPKDTLMISRTPEVTCVVVDVSHEDPEVKFNWYVDGVEVHNAKTKPREEQYNSTYRVVSVLTVLHQDWLNGKEYKCKVSNKALPAPIEKTISKAKGQPREPQVYTLPPSRKEMTKNQVSLTCLVKGFYPSDIAVEWESNGQPENNYKTTPPVLKSDGSFFLYSKLTVDKSRWQQGNVFSCSVMHEALHNHYTQKSLSLSPGK
chain 2: SGPRGVQALLCACTSCLQANYTCETDGACMVSIFNLDGMEHHVRTCIPKVELVPAGKPFYCLSSEDLRNTHCCYTDYCNRIDLRVPSGHLKEPEHPSMWGPVETGGGTHTCPPCPAPELLGGPSVFLFPPKPKDTLMISRTPEVTCVVVDVSHEDPEVKFNWYVDGVEVHNAKTKPREEQYNSTYRVVSVLTVLHQDWLNGKEYKCKVSNKALPAPIEKTISKAKGQPREPQVYTLPPSREEMTKNQVSLTCLVKGFYPSDIAVEWESNGQPENNYDTTPPVLDSDGSFFLYSDLTVDKSRWQQGNVFSCSVMHEALHNHYTQKSLSLSPG
Q: With B1 as the molecule, how does the “inhibition of GDF11 signaling” value (GDF11) read?
A: potent inhibitors

Q: And the “inhibition of activin A signaling” value (activin A [1])?
A: potent inhibitors

Q: What about the “inhibition of GDF8 signaling” value (GDF8) of the same molecule?
A: potent inhibitors

Q: What about the “inhibition of BMP10 signaling” value (BMP10) of the same molecule?
A: significantly reduced

Q: What about the “inhibition of BMP9 signaling” value (BMP9) of the same molecule?
A: significantly reduced

Q: And the “inhibition of activin B signaling” value (activin B)?
A: potent inhibitors

Q: What about the “BMP6 binding” value (BMP6; Example 13) of the same molecule?
A: intermediate-level binding

Q: And the ka (BMP6; ligand BMP6, Table 13)?
A: 2e+06 M⁻¹ s⁻¹

Q: And the kd (BMP6; ligand BMP6, Table 13)?
A: 0.0055 s⁻¹

Q: What about the “GDF3 binding” value (GDF3; Example 13) of the same molecule?
A: substantially reduced binding

Q: What about the ka (GDF3; ligand GDF3, Table 13) of the same molecule?
A: 3.4e+06 M⁻¹ s⁻¹

Q: What about the kd (GDF3; ligand GDF3, Table 13) of the same molecule?
A: 0.017 s⁻¹

Q: What about the “activin A binding” value (activin A [2]; Example 13) of the same molecule?
A: strong binding

Q: What about the ka (activin A [2]; ligand Activin A, Table 13) of the same molecule?
A: 1.3e+07 M⁻¹ s⁻¹

Q: What about the kd (activin A [2]; ligand Activin A, Table 13) of the same molecule?
A: 0.00015 s⁻¹
